In paper PMC6156607:

Molecular target: Full-length human RAB5 (RAB5A), purified, fluorescently labelled (human) (UniProt P20339)
Assay: MST

Chain of UniProt P20339 (P20339 whole entry): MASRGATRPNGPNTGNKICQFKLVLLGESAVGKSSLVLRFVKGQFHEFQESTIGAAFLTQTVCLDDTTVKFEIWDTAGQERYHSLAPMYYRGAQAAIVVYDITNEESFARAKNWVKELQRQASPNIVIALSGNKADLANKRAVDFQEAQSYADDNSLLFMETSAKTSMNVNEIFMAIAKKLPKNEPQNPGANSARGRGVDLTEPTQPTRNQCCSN

- Kd: 21.3 nM
Substance: 6x His-tagged Etf-2^ΔHY (Etf-2 lacking the hydrophobic domain, amino acids 132-151) (natural protein)
